These results are taken from article doi:10.1101/803361.

The Kd is the constant that tells how readily two partners part at equilibrium. High values mean weaker binding, low ones tighter binding.

In the test the target is Fluorescein-labelled Hsf1 peptide with the Hsc70 binding site in the TAD, residues 461-471 (human) (UniProt Q00613). Kind of test: fluorescence polarisation. (In general: In fluorescence polarisation assays a small probe gives low polarisation when free and higher when bound to something large.)
Chain of Fluorescein-labelled Hsf1 peptide with the Hsc70 binding site in the TAD, residues 461-471 (human) (Q00613 whole entry, looked up, the tested form may be a part): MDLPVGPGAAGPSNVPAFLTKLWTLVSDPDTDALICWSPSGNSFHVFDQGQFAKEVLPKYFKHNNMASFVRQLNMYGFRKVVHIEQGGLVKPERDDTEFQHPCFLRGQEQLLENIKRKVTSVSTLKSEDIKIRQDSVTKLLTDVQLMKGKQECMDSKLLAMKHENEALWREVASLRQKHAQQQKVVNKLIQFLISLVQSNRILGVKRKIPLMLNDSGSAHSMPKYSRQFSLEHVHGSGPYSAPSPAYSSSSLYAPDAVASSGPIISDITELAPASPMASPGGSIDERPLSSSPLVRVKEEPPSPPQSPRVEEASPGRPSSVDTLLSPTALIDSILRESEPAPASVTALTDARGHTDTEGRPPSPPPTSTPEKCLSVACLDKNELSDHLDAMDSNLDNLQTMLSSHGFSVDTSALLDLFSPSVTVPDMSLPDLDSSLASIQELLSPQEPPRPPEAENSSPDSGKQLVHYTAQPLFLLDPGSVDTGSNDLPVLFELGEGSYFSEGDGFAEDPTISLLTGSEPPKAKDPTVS

Chain of Human Hsc70 (HSPA8), wild type (P11142 whole entry): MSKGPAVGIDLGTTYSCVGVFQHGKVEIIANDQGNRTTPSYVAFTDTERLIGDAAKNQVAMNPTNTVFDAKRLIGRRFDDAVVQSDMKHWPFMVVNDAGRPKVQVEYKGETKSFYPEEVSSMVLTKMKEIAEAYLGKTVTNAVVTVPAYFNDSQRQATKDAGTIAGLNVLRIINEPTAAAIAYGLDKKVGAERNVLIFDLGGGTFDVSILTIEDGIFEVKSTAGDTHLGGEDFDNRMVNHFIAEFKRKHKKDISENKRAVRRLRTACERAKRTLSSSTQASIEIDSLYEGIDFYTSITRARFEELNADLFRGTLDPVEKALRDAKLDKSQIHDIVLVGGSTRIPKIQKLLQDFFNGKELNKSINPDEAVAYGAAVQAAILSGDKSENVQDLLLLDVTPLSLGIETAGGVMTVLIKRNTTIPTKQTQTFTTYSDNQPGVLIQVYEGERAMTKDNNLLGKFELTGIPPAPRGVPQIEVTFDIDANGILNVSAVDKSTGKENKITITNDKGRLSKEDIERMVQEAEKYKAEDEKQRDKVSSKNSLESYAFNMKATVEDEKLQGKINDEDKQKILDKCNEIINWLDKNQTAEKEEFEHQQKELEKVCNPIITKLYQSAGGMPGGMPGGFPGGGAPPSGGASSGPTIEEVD

For “Human Hsc70 (HSPA8), wild type (from UniProt P11142 1-646) (natural protein)”, the Kd was 5 to 30 µM.
